Values quoted from earlier work as cited in article PMC6829319.

Molecular target: CdiA toxin (Escherichia coli) (UniProt Q0T963)
Sequence (Q0T963 3016-3242): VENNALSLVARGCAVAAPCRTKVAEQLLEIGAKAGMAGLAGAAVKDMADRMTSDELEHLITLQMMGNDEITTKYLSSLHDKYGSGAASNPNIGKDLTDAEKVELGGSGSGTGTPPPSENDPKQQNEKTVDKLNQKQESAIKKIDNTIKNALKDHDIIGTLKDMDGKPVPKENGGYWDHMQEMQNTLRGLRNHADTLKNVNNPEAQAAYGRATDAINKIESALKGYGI

Chain of CysK (P0ABK5 2-323): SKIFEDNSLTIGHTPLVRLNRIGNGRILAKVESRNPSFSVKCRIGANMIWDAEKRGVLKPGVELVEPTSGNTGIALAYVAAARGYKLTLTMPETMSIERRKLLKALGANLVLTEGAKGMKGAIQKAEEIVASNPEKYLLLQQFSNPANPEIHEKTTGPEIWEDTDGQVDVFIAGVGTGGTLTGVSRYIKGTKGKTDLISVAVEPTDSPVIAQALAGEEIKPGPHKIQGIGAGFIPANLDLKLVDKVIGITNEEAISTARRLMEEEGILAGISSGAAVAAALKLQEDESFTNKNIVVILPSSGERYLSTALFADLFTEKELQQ

Substance: CysK (from UniProt P0ABK5)
- Kd: 5 nM
